From PMC8387475

Biological target: UBR5 (UniProt O95071)
Test: co-immunoprecipitation, immunoblot
Conditions: reference: wild type SIRT7; sites T255,S259

binding against the reference: stronger
Substance: SIRT7 (from UniProt Q9NRC8) SIRT7-2A (T255A/S259A)
